Test results published in patent US20190142971A1, “FORMULATION AND DELIVERY OF MODIFIED NUCLEOSIDE, NUCLEOTIDE, AND NUCLEIC ACID COMPOSITIONS” (ModernaTX, Inc., priority 2013, published 2019).

Tested on: non-human primates (cynomolgus monkey)
Experiment: Example 22: NHP hematology: neutrophils, reticulocytes, HGB, HCT, RBC (Tables 40-44)
Type: in vivo
Procedure: LNP formulations, shown in Table 33 (above), were administered to non-human primates (NHP) (cynomolgus monkey) (n=2) as intravenous injection (IV). The NHP were administered a single modified mRNA IV dose of 0.5 mg/kg, 0.05 mg/kg or 0.005 mg/kg of G-CSF or EPO in a dose volume of 0.5 mL/kg. The NHPs were bled before dosing with the modified mRNA LNP formulations to determine protein expression in the serum and a baseline complete blood count. After administration with the G-CSF modified mRNA formulation the NHP were bled at 8, 24, 48 and 72 hours to determined protein expression. After administration with the EPO modified mRNA formulation the NHP were bled at 8, 24, 48, 72 hours and 7 days to determined protein expression.
Samples collected from the NHPs after they were administered with G-CSF or EPO modified mRNA formulations were analyzed by ELISA to determine protein expression. Neutrophil and reticulocyte count was also determined pre-dose, 24 hours, 3 days, 7 days, 14 days and 18 days after administration of the modified G-CSF or EPO formulation.

[1] = 0.005 mg/kg, 14/18 days, Female NHP
[2] = 0.005 mg/kg, 14/18 days, Male NHP
[3] = 0.005 mg/kg, 24 hours, Female NHP
[4] = 0.005 mg/kg, 24 hours, Male NHP
[5] = 0.005 mg/kg, 3 days, Female NHP
[6] = 0.005 mg/kg, 7 days, Female NHP
[7] = 0.005 mg/kg, Pre-dose, Female NHP
[8] = 0.005 mg/kg, Pre-dose, Male NHP
[9] = 0.05 mg/kg, 14/18 days, Female NHP
[10] = 0.05 mg/kg, 14/18 days, Male NHP
[11] = 0.05 mg/kg, 24 hours, Female NHP
[12] = 0.05 mg/kg, Pre-dose, Female NHP
[13] = 0.5 mg/kg, 14/18 days, Female NHP
[14] = 0.5 mg/kg, 14/18 days, Male NHP
[15] = 0.5 mg/kg, 24 hours, Female NHP
[16] = 0.5 mg/kg, Pre-dose, Female NHP

B1: EPO: modified mRNA encoding human erythropoietin, SEQ ID NO: 7, Cap1, fully modified with 5-methylcytosine and pseudouridine; LNP NPA-060-1 in Examples 17-22 (nucleic acid)
chain: GGGAAAUAAGAGAGAAAAGAAGAGUAAGAAGAAAUAUAAGAGCCACCAUGGGAGUGCACGAGUGUCCCGCGUGGUUGUGGUUGCUGCUGUCGCUCUUGAGCCUCCCACUGGGACUGCCUGUGCUGGGGGCACCACCCAGAUUGAUCUGCGACUCACGGGUACUUGAGAGGUACCUUCUUGAAGCCAAAGAAGCCGAAAACAUCACAACCGGAUGCGCCGAGCACUGCUCCCUCAAUGAGAACAUUACUGUACCGGAUACAAAGGUCAAUUUCUAUGCAUGGAAGAGAAUGGAAGUAGGACAGCAGGCCGUCGAAGUGUGGCAGGGGCUCGCGCUUUUGUCGGAGGCGGUGUUGCGGGGUCAGGCCCUCCUCGUCAACUCAUCACAGCCGUGGGAGCCCCUCCAACUUCAUGUCGAUAAAGCGGUGUCGGGGCUCCGCAGCUUGACGACGUUGCUUCGGGCUCUGGGCGCACAAAAGGAGGCUAUUUCGCCGCCUGACGCGGCCUCCGCGGCACCCCUCCGAACGAUCACCGCGGACACGUUUAGGAAGCUUUUUAGAGUGUACAGCAAUUUCCUCCGCGGAAAGCUGAAAUUGUAUACUGGUGAAGCGUGUAGGACAGGGGAUCGCUGAUAAGCUGCCUUCUGCGGGGCUUGCCUUCUGGCCAUGCCCUUCUUCUCUCCCUUGCACCUGUACCUCUUGGUCUUUGAAUAAAGCCUGAGUAGGAAG
modifications: Cap1, 5-methylcytosine, pseudouridine
- Female NHP HGB (0.005 mg/kg IV, 14/18 days): 129 g/L
- Female NHP Neutrophils (0.005 mg/kg IV, 14/18 days): 2.54 10^9/L
- Male NHP HGB (0.005 mg/kg IV, 14/18 days): 128 g/L
- Male NHP Neutrophils (0.005 mg/kg IV, 14/18 days): 1.52 10^9/L
- Female NHP HGB (0.005 mg/kg IV, 24 hours): 128 g/L
- Female NHP Neutrophils (0.005 mg/kg IV, 24 hours): 2.59 10^9/L
- Male NHP HGB (0.005 mg/kg IV, 24 hours): 122 g/L
- Male NHP Neutrophils (0.005 mg/kg IV, 24 hours): 5.37 10^9/L
- Female NHP HGB (0.005 mg/kg IV, 3 days): 130 g/L
- Female NHP Neutrophils (0.005 mg/kg IV, 3 days): 2.83 10^9/L
- Male NHP HGB (0.005 mg/kg IV, 3 days): 125 g/L
- Male NHP Neutrophils (0.005 mg/kg IV, 3 days): 6.08 10^9/L
- Female NHP HGB (0.005 mg/kg IV, 7 days): 127 g/L
- Female NHP Neutrophils (0.005 mg/kg IV, 7 days): 2.23 10^9/L
- Male NHP HGB (0.005 mg/kg IV, 7 days): 119 g/L
- Male NHP Neutrophils (0.005 mg/kg IV, 7 days): 3.51 10^9/L
- Female NHP HGB (0.005 mg/kg IV, Pre-dose): 136 g/L
- Female NHP Neutrophils (0.005 mg/kg IV, Pre-dose): 5.96 10^9/L
- Male NHP HGB (0.005 mg/kg IV, Pre-dose): 132 g/L
- Male NHP Neutrophils (0.005 mg/kg IV, Pre-dose): 5.46 10^9/L
- HCT [1]: 0.42 L/L
- RBC [1]: 5.36 10^12/L
- HCT [2]: 0.42 L/L
- RBC [2]: 5.67 10^12/L
- HCT [3]: 0.43 L/L
- RBC [3]: 5.35 10^12/L
- HCT [4]: 0.42 L/L
- RBC [4]: 5.63 10^12/L
- HCT [5]: 0.42 L/L
- RBC [5]: 5.42 10^12/L
- HCT (0.005 mg/kg, 3 days, Male NHP): 0.44 L/L
- RBC (0.005 mg/kg, 3 days, Male NHP): 5.77 10^12/L
- HCT [6]: 0.42 L/L
- RBC [6]: 5.35 10^12/L
- HCT (0.005 mg/kg, 7 days, Male NHP): 0.41 L/L
- RBC (0.005 mg/kg, 7 days, Male NHP): 5.49 10^12/L
- HCT [7]: 0.45 L/L
- RBC [7]: 5.72 10^12/L
- HCT [8]: 0.48 L/L
- RBC [8]: 6.15 10^12/L
- Female NHP HGB (0.05 mg/kg IV, 14/18 days): 129 g/L
- Female NHP Neutrophils (0.05 mg/kg IV, 14/18 days): 1.27 10^9/L
- Male NHP HGB (0.05 mg/kg IV, 14/18 days): 133 g/L
- Male NHP Neutrophils (0.05 mg/kg IV, 14/18 days): 1.53 10^9/L
- Female NHP HGB (0.05 mg/kg IV, 24 hours): 116 g/L
- Female NHP Neutrophils (0.05 mg/kg IV, 24 hours): 2.63 10^9/L
- Male NHP HGB (0.05 mg/kg IV, 24 hours): 123 g/L
- Male NHP Neutrophils (0.05 mg/kg IV, 24 hours): 2.51 10^9/L
- Female NHP HGB (0.05 mg/kg IV, 3 days): 120 g/L
- Female NHP Neutrophils (0.05 mg/kg IV, 3 days): 4.08 10^9/L
- Male NHP HGB (0.05 mg/kg IV, 3 days): 116 g/L
- Male NHP Neutrophils (0.05 mg/kg IV, 3 days): 1.73 10^9/L
- Female NHP HGB (0.05 mg/kg IV, 7 days): 121 g/L
- Female NHP Neutrophils (0.05 mg/kg IV, 7 days): 2.77 10^9/L
- Male NHP HGB (0.05 mg/kg IV, 7 days): 126 g/L
- Male NHP Neutrophils (0.05 mg/kg IV, 7 days): 1.23 10^9/L
- Female NHP HGB (0.05 mg/kg IV, Pre-dose): 133 g/L
- Female NHP Neutrophils (0.05 mg/kg IV, Pre-dose): 2.15 10^9/L
- Male NHP HGB (0.05 mg/kg IV, Pre-dose): 133 g/L
- Male NHP Neutrophils (0.05 mg/kg IV, Pre-dose): 0.97 10^9/L
- HCT [9]: 0.43 L/L
- RBC [9]: 5.57 10^12/L
- HCT [10]: 0.46 L/L
- RBC [10]: 5.57 10^12/L
- HCT [11]: 0.39 L/L
- RBC [11]: 5.18 10^12/L
- HCT (0.05 mg/kg, 24 hours, Male NHP): 0.43 L/L
- RBC (0.05 mg/kg, 24 hours, Male NHP): 5.25 10^12/L
- HCT (0.05 mg/kg, 3 days, Female NHP): 0.4 L/L
- RBC (0.05 mg/kg, 3 days, Female NHP): 5.16 10^12/L
- HCT (0.05 mg/kg, 3 days, Male NHP): 0.38 L/L
- RBC (0.05 mg/kg, 3 days, Male NHP): 4.81 10^12/L
- HCT (0.05 mg/kg, 7 days, Female NHP): 0.41 L/L
- RBC (0.05 mg/kg, 7 days, Female NHP): 5.31 10^12/L
- HCT (0.05 mg/kg, 7 days, Male NHP): 0.45 L/L
- RBC (0.05 mg/kg, 7 days, Male NHP): 5.37 10^12/L
- HCT [12]: 0.43 L/L
- RBC [12]: 5.84 10^12/L
- HCT (0.05 mg/kg, Pre-dose, Male NHP): 0.45 L/L
- RBC (0.05 mg/kg, Pre-dose, Male NHP): 5.57 10^12/L
- Female NHP HGB (0.5 mg/kg IV, 14/18 days): 133 g/L
- Female NHP Neutrophils (0.5 mg/kg IV, 14/18 days): 2.36 10^9/L
- Male NHP HGB (0.5 mg/kg IV, 14/18 days): 146 g/L
- Male NHP Neutrophils (0.5 mg/kg IV, 14/18 days): 7.16 10^9/L
- Female NHP HGB (0.5 mg/kg IV, 24 hours): 108 g/L
- Female NHP Neutrophils (0.5 mg/kg IV, 24 hours): 11.85 10^9/L
- Male NHP HGB (0.5 mg/kg IV, 24 hours): 127 g/L
- Male NHP Neutrophils (0.5 mg/kg IV, 24 hours): 7.5 10^9/L
- Female NHP HGB (0.5 mg/kg IV, 3 days): 120 g/L
- Female NHP Neutrophils (0.5 mg/kg IV, 3 days): 5.22 10^9/L
- Male NHP HGB (0.5 mg/kg IV, 3 days): 126 g/L
- Male NHP Neutrophils (0.5 mg/kg IV, 3 days): 11.07 10^9/L
- Female NHP HGB (0.5 mg/kg IV, 7 days): 134 g/L
- Female NHP Neutrophils (0.5 mg/kg IV, 7 days): 2.85 10^9/L
- Male NHP HGB (0.5 mg/kg IV, 7 days): 140 g/L
- Male NHP Neutrophils (0.5 mg/kg IV, 7 days): 11.8 10^9/L
- Female NHP HGB (0.5 mg/kg IV, Pre-dose): 123 g/L
- Female NHP Neutrophils (0.5 mg/kg IV, Pre-dose): 1.82 10^9/L
- Male NHP HGB (0.5 mg/kg IV, Pre-dose): 134 g/L
- Male NHP Neutrophils (0.5 mg/kg IV, Pre-dose): 9.72 10^9/L
- HCT [13]: 0.46 L/L
- RBC [13]: 5.72 10^12/L
- HCT [14]: 0.48 L/L
- RBC [14]: 5.83 10^12/L
- HCT [15]: 0.36 L/L
- RBC [15]: 4.69 10^12/L
- HCT (0.5 mg/kg, 24 hours, Male NHP): 0.4 L/L
- RBC (0.5 mg/kg, 24 hours, Male NHP): 5.12 10^12/L
- HCT (0.5 mg/kg, 3 days, Female NHP): 0.39 L/L
- RBC (0.5 mg/kg, 3 days, Female NHP): 5.15 10^12/L
- HCT (0.5 mg/kg, 3 days, Male NHP): 0.41 L/L
- RBC (0.5 mg/kg, 3 days, Male NHP): 5.13 10^12/L
- HCT (0.5 mg/kg, 7 days, Female NHP): 0.45 L/L
- RBC (0.5 mg/kg, 7 days, Female NHP): 5.68 10^12/L
- HCT (0.5 mg/kg, 7 days, Male NHP): 0.45 L/L
- RBC (0.5 mg/kg, 7 days, Male NHP): 5.55 10^12/L
- HCT [16]: 0.4 L/L
- RBC [16]: 5.26 10^12/L
- HCT (0.5 mg/kg, Pre-dose, Male NHP): 0.44 L/L
- RBC (0.5 mg/kg, Pre-dose, Male NHP): 5.43 10^12/L
- reticulocytes 3 days to 14/18 days after dosing relative to 24 hours after dosing (all dose groups): increase in reticulocytes
- effect on hemoglobin (HGB), hematocrit (HCT) and red blood cell (RBC) count (cynomolgus monkey, in vivo): had an effect
